One substance from patent publication US20240002844 can be followed below.

This data set deals with T1, recombinant SHN3 (rSHN3, 50-930 aa) (UniProt A2A884).
T1 sequence: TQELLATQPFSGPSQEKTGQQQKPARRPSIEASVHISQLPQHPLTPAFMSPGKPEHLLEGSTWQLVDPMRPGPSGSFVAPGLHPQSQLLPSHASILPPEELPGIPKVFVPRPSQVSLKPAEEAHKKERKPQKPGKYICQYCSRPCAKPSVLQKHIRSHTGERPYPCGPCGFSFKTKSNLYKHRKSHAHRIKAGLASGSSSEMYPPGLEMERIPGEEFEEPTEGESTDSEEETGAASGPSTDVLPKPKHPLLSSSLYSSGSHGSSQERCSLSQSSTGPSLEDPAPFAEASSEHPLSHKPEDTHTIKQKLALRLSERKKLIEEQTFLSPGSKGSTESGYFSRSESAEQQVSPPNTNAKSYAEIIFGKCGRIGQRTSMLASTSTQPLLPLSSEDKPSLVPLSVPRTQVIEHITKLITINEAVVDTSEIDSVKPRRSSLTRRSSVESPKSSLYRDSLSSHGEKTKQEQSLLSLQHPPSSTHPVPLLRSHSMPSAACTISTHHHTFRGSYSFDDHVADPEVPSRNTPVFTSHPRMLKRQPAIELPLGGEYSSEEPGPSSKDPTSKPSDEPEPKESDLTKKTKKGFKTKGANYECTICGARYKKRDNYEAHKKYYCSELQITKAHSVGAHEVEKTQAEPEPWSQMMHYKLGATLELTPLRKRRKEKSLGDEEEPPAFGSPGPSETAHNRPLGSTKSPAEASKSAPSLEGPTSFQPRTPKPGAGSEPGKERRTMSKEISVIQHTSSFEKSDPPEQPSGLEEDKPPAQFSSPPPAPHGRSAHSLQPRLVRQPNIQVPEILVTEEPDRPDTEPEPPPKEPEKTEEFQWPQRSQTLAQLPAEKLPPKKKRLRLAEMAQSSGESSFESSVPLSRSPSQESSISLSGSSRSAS

recombinant ERK2 (rERK2), sequence (P28482 2-360): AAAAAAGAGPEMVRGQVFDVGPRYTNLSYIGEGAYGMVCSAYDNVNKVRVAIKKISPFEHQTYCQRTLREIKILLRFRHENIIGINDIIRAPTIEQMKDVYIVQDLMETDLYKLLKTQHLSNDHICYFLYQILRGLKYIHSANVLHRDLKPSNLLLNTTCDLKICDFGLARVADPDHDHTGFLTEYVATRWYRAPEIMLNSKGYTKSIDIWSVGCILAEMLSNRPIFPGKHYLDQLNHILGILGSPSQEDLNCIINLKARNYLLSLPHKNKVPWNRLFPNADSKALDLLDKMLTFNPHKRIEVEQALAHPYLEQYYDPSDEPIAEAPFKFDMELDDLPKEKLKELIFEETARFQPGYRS

For recombinant ERK2 (rERK2), the “in vitro kinase assay: rERK2-induced phosphorylation of rSHN3 (FIG. 9C)” value is listed as “recombinant SHN3 (rSHN3) was phosphorylated by recombinant ERK2 (rERK2)”; the “in vitro kinase assay: rERK2-induced phosphorylation of the ERK substrate ELK1 (FIG. 9C)” value is “rSHN3 inhibited rERK2-induced phosphorylation of the ERK substrate ELK1”; the “phospho-spectrometry analysis of rERK and rSHN3 (FIG. 9D)” value was “rERK phosphorylates rSHN3 at two serines (810 and 811 aa), one threonine (851 aa), and two serines (911 and 913 aa)”.
